Results as given in patent publication US20020110853A1 (IMMUNEX, published 2002).

Tests used:
[1] = molecular target: T1, DR3, expressed on transfected COS cells (UniProt Q93038 25-417, limits assumed); assay: slide binding on transfected COS cells, 125I anti-leucine zipper antibody, autoradiography
T1 construct: whole, on cells; also called Apo3; WSL-1
T1 sequence (looked up): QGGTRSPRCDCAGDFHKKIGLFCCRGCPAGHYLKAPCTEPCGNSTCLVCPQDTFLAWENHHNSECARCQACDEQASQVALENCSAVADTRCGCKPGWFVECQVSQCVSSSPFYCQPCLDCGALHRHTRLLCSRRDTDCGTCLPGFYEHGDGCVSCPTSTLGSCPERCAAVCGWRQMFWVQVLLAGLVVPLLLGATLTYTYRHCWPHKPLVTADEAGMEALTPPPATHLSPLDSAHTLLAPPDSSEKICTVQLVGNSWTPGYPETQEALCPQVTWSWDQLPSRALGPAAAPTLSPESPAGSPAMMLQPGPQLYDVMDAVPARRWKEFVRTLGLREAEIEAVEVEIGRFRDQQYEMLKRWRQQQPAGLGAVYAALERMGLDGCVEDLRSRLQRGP
Protocol: Slides of COS cells were transfected with expression vectors containing TWEAKR, DR3, or vector without insert (control). After two days the cells were incubated with concentrated supernatants from CV-1 cells transfected with a vector encoding the leucine zipper TWEAK extracellular domain fusion protein. One hour later the cells were washed and probed with an ¹²⁵Ilabeled antibody against the leucine-zipper domain. The slides were washed, fixed, and autoradiography was performed using x-ray film. The TWEAKR transfected cells bound significant amounts of TWEAK. […] This experiment confirmed that the TWEAKR polypeptide identified in part A above, rather than DR3, is the major receptor for TWEAK. After discovery of the functional TWEAK receptor, other investigators also reported that DR3 is not the major receptor for TWEAK (Kaptein et al., FEBS Lett., 485(2-3):135, 2000. The TWEAK-TWEAKR binding interaction was further characterized by Scatchard analysis.

[2] = molecular target: T2, human TWEAK receptor (TWEAKR), expressed on transfected COS cells (human, UniProt Q9NP84 28-129); assay: expression cloning by panning with TWEAK coated beads, then slide binding on transfected COS cells
T2 construct: 129 residue polypeptide cloned from a HUVEC library; Signal peptide 1-27 is predicted
T2 sequence: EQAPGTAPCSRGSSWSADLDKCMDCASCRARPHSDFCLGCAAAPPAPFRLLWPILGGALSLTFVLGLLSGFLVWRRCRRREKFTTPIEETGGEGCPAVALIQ
Description: To clone TWEAKR cDNA, an expression vector encoding a growth hormone leader, a leucine zipper multimerization domain, and the C-terminal extracellular domain of human TWEAK (see Chicheportiche et al., J. Biol. Chem. 272(51):32401, 1997) was constructed. This expression vector, which was named pDC409-LZ-TWEAK, comprised the DNA sequence SEQ ID NO: 1 and encoded the polypeptide SEQ ID NO:2. pDC409-LZ-TWEAK conditioned supernatants were produced by transient transfection into CVI-EBNA cells. These supernatants were incubated with magnetic beads coated with polyclonal goat anti-mouse antibody that had previously been incubated with a mouse monoclonal antibody against the leucine zipper. Control beads were produced by mixing the coated beads with supernatants from cells transfected with empty vector.
A monolayer of COS cells grown in a T175 flask was transfected with 15 μg of DNA pools of complexity of 100,000 from a human umbilical vein endothelial cell (HUVEC) cDNA expression library. After 2 days these cells were lifted from the flask, and incubated in 1.5 mls of binding media plus 5% non-fat dried milk for 3 hours at 4° C. on a rotator wheel. […] Slide binding was performed as described more fully below, with the exception that TWEAKR positive slides were detected by incubation with […] followed by incubation with ¹²⁵I-labled M15 anti-leucine zipper.

[3] = molecular target: T3, human TWEAKR-Fc (TWEAKR extracellular domain fused to Fc portion from human IgG1) (human, 125-I labeled in the Scatchard assay); assay: ligand blot of TweakR-Fc (with and without DTT, with and without heating at 100° C.) probed with TWEAK-leucine zipper supernatant and 125I M15 anti-leucine zipper
T3 construct: the assays name only TWEAKR-Fc; also called huTWEAKR-Fc
Protocol: Ligand blots were generated by running either TweakR-Fc or RP-Fc as a control on a standard SDS-PAGE and blotted onto nitrocellulose. The separate samples were prepared by with and without the addition of reducing agent (DTT) and with and without heating at 100° C. to denature the proteins. This blot was probed with TWEAK-leucine zipper conditioned supernatants followed by ¹²⁵I labeled M15 anti-leucine zipper.

- binding result [1]: no binding
- binding result [2]: binds
- binding result [3]: binds
B1: leucine zipper TWEAK extracellular domain fusion protein (product of pDC409-LZ-TWEAK) (ligand)
chain: not shown
notes: Used as conditioned supernatant of transfected CV-1/EBNA cells; also called TWEAK-leucine zipper
